Target: MUC1 (human, UniProt P15941 24-1255, limits assumed)
Assay: immunofluorescence co-localisation on human carcinoma cell lines; MUC5AC siRNA knockdown

B1: humanized PAM4 (hPAM4) IgG (antibody, V domains shown)
VH: QVQLQQSGAEVKKPGASVKVSCEASGYTFPSYVLHWVKQAPGQGLEWIGYINPYNDGTQYNEKFKGKATLTRDTSINTAYMELSRLRSDDTAVYYCARGFGGSYGFAYWGQGTLVTVSS
VL: DIQLTQSPSSLSASVGDRVTMTCSASSSVSSSYLYWYQQKPGKAPKLWIYSTSNLASGVPARFSGSGSGTDFTLTISSLQPEDSASYFCHQWNRYPYTFGGGTRLEIKR
notes: humanized IgG1 kappa; used HRP-conjugated in some ELISAs and blots; also called clivatuzumab; HRP-hPAM4
B1: no binding.

Reference: patent US20150315289A1 (published 2015)
